Data taken from PMC2958096.
Read-outs that look alike come from different tables or passages of the source.

What was measured:
SUD-C [1] = target: T1, SUD-C (SARS-CoV, UniProt P0C6U8 1473-1538); test: EMSA
SUD-MC [2] = target: T2, SUD-MC (SARS-CoV, UniProt P0C6U8 1345-1538); test: EMSA
SUD-M [3] = target: T3, SUD-M (SARS-CoV, UniProt P0C6U8 1345-1469); test: EMSA
SUD-M [4] = target: T3, SUD-M; test: EMSA; remark: listed apart in the source
SUD-MC [5] = target: T2, SUD-MC; test: EMSA; remark: listed apart in the source
SUD-M [6] = target: T3, SUD-M; test: EMSA; remark: listed apart in the source
SUD-MC [7] = target: T2, SUD-MC; test: EMSA; remark: listed apart in the source
SUD-MC [8] = target: T2, SUD-MC; test: NMR chemical shift perturbation
SUD-C [9] = target: T1, SUD-C; test: NMR chemical shift perturbation
SUD-C [10] = target: T1, SUD-C; test: NMR chemical shift perturbation; remark: listed apart in the source
SUD-MC [11] = target: T2, SUD-MC; test: NMR chemical shift perturbation; remark: listed apart in the source
SUD-M [12] = target: T3, SUD-M
SUD-M [13] = target: T3, SUD-M; test: NMR chemical shift perturbation
SUD-MC [14] = target: T2, SUD-MC; test: NMR chemical shift perturbation; remark: listed apart in the source

B1: (GGGA)5 (ssRNA)
RNA: GGGAGGGAGGGAGGGAGGGA
SUD-C [1]
  binding result: no binding
SUD-MC [2]
  binding result: binds
SUD-M [3]
  binding result: binds

B2: (ACUG)5 (ssRNA)
RNA: ACUGACUGACUGACUGACUG
SUD-C [1]
  binding result: no binding
SUD-M [4]
  binding result: binds
SUD-MC [5]
  binding result: no binding

B3: GGGAGGGA (ssRNA)
RNA: GGGAGGGA
SUD-M [6]
  binding result: binds

B4: GGGAGGGAGG (ssRNA)
RNA: GGGAGGGAGG
SUD-MC [7]
  binding result: binds
SUD-M [3]
  binding result: binds

B5: A10 (ssRNA)
RNA: AAAAAAAAAA
SUD-MC [8]
  binding result: binds
SUD-C [9]
  binding result: binds

B6: G10 (ssRNA)
RNA: GGGGGGGGGG
SUD-C [10]
  binding result: binds

B7: TRS(+) (ssRNA)
RNA: CUAAACGAAC
SUD-MC [11]
  binding result: binds
SUD-M [12]
  binding result: no binding

B8: TRS(-) (ssRNA)
RNA: GUUCGUUUAG
SUD-M [12]
  binding result: no binding

B9: (GGA)4 (ssRNA)
RNA: GGAGGAGGAGGA
SUD-M [13]
  binding result: binds
SUD-MC [14]
  binding result: binds
